This assay has as its target T1, human N-glycanase 1 (NGLY-1) (human, UniProt Q96IV0 2-654).
T1 construct: Endogenous protein in cell lysates, denatured on immunoblots; also called human NGLY1 protein
T1 sequence (looked up): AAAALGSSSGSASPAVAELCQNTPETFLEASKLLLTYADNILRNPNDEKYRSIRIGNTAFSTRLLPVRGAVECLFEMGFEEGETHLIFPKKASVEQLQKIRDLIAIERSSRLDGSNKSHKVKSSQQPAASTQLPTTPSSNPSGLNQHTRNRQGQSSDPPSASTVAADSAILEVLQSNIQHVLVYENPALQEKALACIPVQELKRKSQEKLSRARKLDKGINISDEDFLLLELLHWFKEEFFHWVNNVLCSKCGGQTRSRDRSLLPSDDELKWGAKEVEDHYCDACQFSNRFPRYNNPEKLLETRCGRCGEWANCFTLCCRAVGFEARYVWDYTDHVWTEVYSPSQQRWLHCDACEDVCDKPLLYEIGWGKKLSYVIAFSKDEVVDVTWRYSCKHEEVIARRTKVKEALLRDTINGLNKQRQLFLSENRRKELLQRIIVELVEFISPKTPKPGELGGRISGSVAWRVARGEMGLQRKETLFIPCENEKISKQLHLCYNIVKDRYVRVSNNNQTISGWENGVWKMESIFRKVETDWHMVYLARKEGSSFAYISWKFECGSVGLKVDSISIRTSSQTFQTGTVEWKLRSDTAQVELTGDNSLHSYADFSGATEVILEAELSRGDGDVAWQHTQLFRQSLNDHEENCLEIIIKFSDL
The assay can be described thus: immunoblot on isogenic human NGLY1 null and wild type iPS cell lines. How it is done:
The conjugate was injected into female BALB/cJ mice at a dose of 10 μg per mouse with Alum adjuvant. Mice were immunized by i.p injection three times approximately two (2) weeks apart. Ten days after the third immunization, splenocytes were isolated and fused with SP2 myeloma cells to create hybridoma cell lines. Hybridomas were cultured in 96-well plates and supernatants screened on protein arrays and by ELISA. Positive clones were further validated by western blot using lysates prepared from C57BL/6J and the CRISPR/Cas9 generated null strain as positive and negative controls. Additional immunoblots were used to identify additional clones that generated antibodies capable of cross reacting with human NGLY1 protein. Isogenic human derived NGLY1 null and wild type iPS cell lines providing positive and negative controls evaluation of anti-human NGLY1 cross-reactivity were provided. A single hybridoma gave rise to clone 5G8 that generated an antibody that was specific to both murine and human NGLY1 protein and was used for subsequent studies.
On the technique in general: In western blotting, separated proteins are transferred to a membrane and probed.

The text below walks through data of US20210139607A1 (JACKSON LABORATORY, published 2021).

B1: mouse anti-NGly-1 monoclonal antibody, clone 5G8 (antibody, V domains shown)
VH: QVQLQQSGAELVRPGTSVKVSCKASGYAFINYLIEWVKQRPGQGLEWIGIISPGSGSTNYNEEFRGRATLTADRSSSTAYMQLSSLTSDDSAVYFCARGGLTHYSGSTYEEGFDFWGQGTTLTVSS
VL: QAVVTQESALTTSPGETVTLTCRSSTGAVTTTNYANWVQEKPDHLFTGLIGGTNNRAPGVPARFSGSLIGDKAALTITGAQTDDEAIYFCALWYSNRWVFGGGTKLTVLG
notes: also called anti-NGly-1 monoclonal antibody of the present disclosure; Mouse monoclonal (anti-mouse peptide), JAX Monoclonal Service
For B1, the binding result is “binds”.
